Results as given in publication PMC6987200 (Nature Communications, 2020).
“And” between values parts separate entries of the source, which are not always exact repeats. Identical values can stand only once. One block for each binder: values may come before it.

Columns and labels:
[1] = target: the molecule itself; experiment: native MS; OmpF after detergent exchange from n-octyl-β-D-glucopyranoside to OGDs 1-3 on Superdex 200; MS buffer 200 mM NH4OAc, pH 6.8; HCD 200 V
[2] = target: T1, aquaporin channel (AqpZ) fused to GFP, P60844; experiment: native MS; AqpZ-GFP after extraction with OGD batches and IMAC; MS buffer 200 mM NH4OAc, pH 6.8, with detergent; modified Q Exactive, HCD 200 V; settings: remark: other sources report otherwise
T1 chain: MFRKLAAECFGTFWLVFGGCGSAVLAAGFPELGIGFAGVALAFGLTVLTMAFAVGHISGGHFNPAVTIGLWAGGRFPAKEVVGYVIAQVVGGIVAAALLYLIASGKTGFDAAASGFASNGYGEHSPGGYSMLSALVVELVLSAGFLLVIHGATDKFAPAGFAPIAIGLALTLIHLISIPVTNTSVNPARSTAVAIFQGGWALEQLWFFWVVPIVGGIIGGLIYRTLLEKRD

B1: OmpF (natural protein, UniProt P02931 23-362, looked up)
chain: AEIYNKDGNKVDLYGKAVGLHYFSKGNGENSYGGNGDMTYARLGFKGETQINSDLTGYGQWEYNFQGNNSEGADAQTGNKTRLAFAGLKYADVGSFDYGRNYGVVYDALGYTDMLPEFGGDTAYSDDFFVGRVGGVATYRNSNFFGLVDGLNFAVQYLGKNERDTARRSNGDGVGGSISYEYEGFGIVGAYGAADRTNLQEAQPLGNGKKAEQWATGLKYDANNIYLAANYGETRNATPITNKFTNTSGFANKTQDVLLVAQYQFDFGLRPSIAYTKSKAKDVEGIGDVDLVNYFEVGATYYFNKNMSTYVDYIINQIDSDNKLGVGSDDTVAVGIVYQF
notes: OmpF, a bacterial outer membrane protein; also called trimeric OmpF; source: detergent exchanged on Superdex 200
stoichiometry N [1]: 3

stoichiometry N [2]: 4 and 2
B2: aquaporin channel (AqpZ) fused to GFP, P60844 1-231 (natural protein)
chain: T1 chain
